The series deals with T1, MdABI5 (Malus domestica? (apple), UniProt A0A498IDK6 1-461).
T1 sequence: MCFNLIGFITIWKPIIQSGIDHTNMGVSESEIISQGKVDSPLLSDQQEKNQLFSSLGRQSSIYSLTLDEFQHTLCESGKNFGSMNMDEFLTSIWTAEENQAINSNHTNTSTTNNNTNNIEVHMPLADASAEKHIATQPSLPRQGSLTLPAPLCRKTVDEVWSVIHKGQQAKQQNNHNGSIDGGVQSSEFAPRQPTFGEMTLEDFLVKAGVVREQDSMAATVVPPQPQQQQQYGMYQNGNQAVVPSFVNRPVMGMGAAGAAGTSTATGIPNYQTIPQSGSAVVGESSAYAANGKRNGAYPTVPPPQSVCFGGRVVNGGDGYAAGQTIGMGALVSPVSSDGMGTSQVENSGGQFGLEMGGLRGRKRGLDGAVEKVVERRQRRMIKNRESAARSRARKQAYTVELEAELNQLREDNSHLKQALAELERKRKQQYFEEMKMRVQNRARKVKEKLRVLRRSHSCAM
Nature of the series: EMSA; MdABI5 alone; Beyotime EMSA/Gel-Shift Kit binding buffer (composition, salt and pH not given), 24 C, 30 min, biotin-labelled probe. The settings on record: protein: recombinant; chain copies: 2; label: biotin; blunt. In general terms: In EMSA bound probe runs differently from free probe, usually more slowly.

B1: MdSAG18 promoter probe (dsDNA)
DNA 1: GGGGGGGGTCCACGTGGGTCACCAAC
DNA 2: GTTGGTGACCCACGTGGACCCCCCCC
Consider B1, for which the binding result is reported as “no binding”.

(Values after publication PMC10995623, “Apple E3 ligase MdPUB23 mediates ubiquitin-dependent degradation of MdABI5 to delay ABA-triggered leaf senescence”.)
